Literature values as cited in patent EP0632082B1, “Preparation of activated carbamates of poly(alkylene glycol) and their use” ("HEYLECINA", Société Anonyme, priority 1993, dated 1995).

Conditions: modification with SC-mPEG

Substance: papaya proteinase III: papaya proteinase III modified with SC-mPEG
- increase of specific activity: 250%
